# Reference: US8053415B2, “Compounds having RD targeting motifs” (Washington University in St. Louis, priority 2005, dated 2011)
# “Also recorded” adds a separate entry of the source. Where a SMILES comes first, the peptide text is derived from it.
# What was measured:
# [1] = Absorption and emission spectral properties in 20% aqueous DMSO; type: physicochemical
# Method: The spectral properties of cypate and the cypate-peptide conjugates were determined in 20% aqueous DMSO, which solubilizes all the compounds. […] Absorbance measurements were performed with a Beckman Coulter DU 640 spectrophotometer. The fluorescence spectra were recorded on Fluorolog-3 fluorometer (HORIBA Jobin Yvon Inc., Edison, N.J.). To prepare the stock solutions, a high precision analytical balance was used to weigh >2 mg of each compound, which was dissolved in DMSO. The DMSO solutions were then diluted with water to obtain a final solution of 20% aqueous DMSO. An aliquot (known volume) of the solution was transferred to a cuvette with 1 μL precision micropipettes and diluted with 20% aqueous DMSO solvent mixture to give a working solution that absorbs at <1.0 absorbance unit. Aliquots of the working solution were diluted with 20% aqueous DMSO and used to determine the molar absorptivity of each compound. For fluorescence measurements, probe solutions with 0.1 absorbance units were used to minimize inner filter effects.
# Previous studies have shown that this solvent mixture boosts fluorescence intensity and is well tolerated by rodents. Additionally, the dyes and their peptide conjugates are soluble in this solvent mixture, providing a common medium for spectral measurements.
# Absorbance spectra were measured on a Beckman Coulter DU 640 UV-Visible spectrophotometer. Fluorescence spectra were recorded on a HORIBA Jobin Yvon Fluorolog-3 fluorometer. Stock solutions (1.0 mM) of the conjugates were prepared by dissolving each sample in 80% aqueous DMSO. UV-Vis and fluorescence measurements were carried out by adding 5.0 μL of the stock solutions via a micropipette into 3 mL of 20% aqueous DMSO in a quartz cuvette.
# [2] = target: integrin αvβ3 protein (purified ABI) (Homo sapiens, UniProt P05106+P06756); assay: Receptor binding assay with 125I-echistatin (Example 3); details: Table 4, 125I-echistatin tracer
# Method: A 96-well filtration plate was blocked with 0.1% polyethylenimine blocking solution by incubation overnight at 4° C. ^125I-Echistatin (50 nmol/L) was added to the binding buffer (50 mM Tris-HCl, pH 7.4, 100 mM NaCl, 2 mM CaCl2, 1 mM MgCl2, 1 mM MnCl2, 0.1% BSA) with integrin αvβ3 protein (50 ng/well in 96-well filtration plate) and ligands. The concentration range of ligand was between 0.01 and 100 μM. The mixture was incubated for 2 h by shaking at room temperature. Each well was washed three times with 0.25 mL of ice-cold binding buffer and dried. The filters were removed using a punch apparatus and counted in a gamma counter.
# A549 cells [3] = assay: MTT cytotoxicity assay; type: cell-based, human; details: up to 100 μM solution in 20% aqueous DMSO, 24 h
# Method: Cytotoxicity assays were performed using the 3-(4,5-dimethylthiazol-2-yl)-2,5-diphenyltetrazolium bromide (MTT) based in vitro toxicology assay kit (Sigma-Aldrich, St. Louis, Mo.) per the manufacturer's protocol. Briefly, A549 cells were grown in 96 well plates to 75% confluence in phenol red free Dulbecco's Modified Eagle's Medium supplemented with 10% fetal calf serum, 100 units/mL penicillin and 100 units/mL streptomycin. A concentration range (0-125 μM) of the compound to be tested was added to each well in a final volume of 100 μL/well and the cells were incubated for 24 h at 37° C. in 5% CO2. After incubation, the medium was removed and replaced with 100 μL/well phenol red free medium. Absorbances at 570 nm and 690 nm were measured. MTT (10 μL) was added to each well and the cells were incubated for 2 h. […] Absorbance at 570 nm and 690 nm were measured. The Δ570 and Δ690 were determined by taking the difference of the absorbances before and after the addition of MTT. The percent of viable cells, B, was determined according to the formula:
# [formula] where λΔ570 was the absorbance of formazan crystals at 570 nm and λΔ690 was background at 690 nm.
# The conventional MTT protocol typically involves background subtraction at 690 nm from the absorbance at 570 nm. […] To circumvent this problem, the background absorbance at 690 nm was adjusted by running parallel experiments with and without MTT. […]
# [4] = test system: αv, β3, αvβ3 and αIIBβ3 integrins in A549 cells; assay: Immunostaining of integrins in treated and untreated cells; type: cell-based, human; details: relative to PBS-treated cells
# Method: To confirm the receptors that mediate internalization of cypate-GRD in A549 cells, the levels of αv, αIIb, β3, αvβ3, and αIIBβ3 in treated and untreated cells were assessed by immunostaining. Cells were grown on Lab-Tek slides and fixed in 3% paraformaldehyde in PBS for 30 min. After washing three times for 5 min each in PBS, the cells were blocked to mask nonspecific binding sites with PBS containing 1% normal goat serum (blocking solution) for 1 h. Primary antibodies of mouse anti-human αv or β3 integrin antibodies (Chemicon International, Temecula, Calif.) or antihuman αIIBβ3 (GeneTex, Inc., South Bend, Ind.) diluted 1:500 (v/v) in blocking solution were added to each well and incubated overnight at 4° C. After washing three times for 10 min each in PBS, cells were incubated for 1 h with diluted biotinylated-anti-mouse IgG antibody in blocking solution. After washing, antigens were detected with avidin-horseradish peroxidase conjugate and diamino benzidine (Vector Laboratories, Burlingame, Calif.). Slides were counterstained with Mayers Hematoxylin, and the cover slips were mounted for microscopic examination.
# VSMC wild-type cells = assay: Internalization in wild-type vascular smooth muscle cells; type: cell-based, mice; details: 1 μM, 1 hr, 37° C.
# Method: (§1) Having shown that cypate-GRD preferentially binds to β3 integrin in ABI-positive cells, it was hypothesized that it would not internalize in β3 knockout cells. Vascular smooth muscle cells (VSMCs) from the aortas of β3^−/−apoE^−/− and β3^+/+apoE^−/− mice were provided by Dr. Clay F. Semenkovich (Washington University Medical School in St. Louis, Mo.). VSMCs were maintained at 37° C. in humidified atmosphere containing 5% CO2 in Dulbecco's modified Eagle's medium (DMEM) containing 10% fetal bovine serum, 4 mmol/L L-glutamine, 1 mM sodium pyruvate, 100 U/ml penicillin, 0.25 μg/ml amphotericin, 100 μg/ml streptomycin. The internalization of cypate-GRD and cyclic cypate-RGD were compared in β3 knockout and wild-type VSMC cells, essentially as described above.
# β3 knockout VSMC cells = assay: Internalization in integrin β3 knock-out vascular smooth muscle cells; type: cell-based, mice; details: 1 μM, 1 hr, 37° C.
# Method: as §1
# A549 cells [5] = assay: CyQuant cytotoxicity and proliferation assay; type: cell-based, human; details: 48 hours
# Method: Cells were seeded at 2.5×10^4 cells/well and grown in 96 well plates in the presence of 0−1.5×10^−5 M cypate conjugated peptides for 24 or 48 hours. Cell proliferation was measured using the CyQuant proliferation assay from Molecular Probes (Eugene, Oreg.) per the manufacturer's protocol. Briefly, after incubation the microplate was inverted to remove the media and frozen at −70° C. overnight. The microplate was thawed at room temperature and 200 μL of the CyQuant GR dye/cell-lysis buffer was added to each well. […]
# Because the Cyquant assay is based on the adherence of a dye to nucleic acids, the assay is a measure of both proliferative and cytotoxic effects.
# Chain of integrin αvβ3 protein (purified ABI) (P06756 31-889 limits assumed): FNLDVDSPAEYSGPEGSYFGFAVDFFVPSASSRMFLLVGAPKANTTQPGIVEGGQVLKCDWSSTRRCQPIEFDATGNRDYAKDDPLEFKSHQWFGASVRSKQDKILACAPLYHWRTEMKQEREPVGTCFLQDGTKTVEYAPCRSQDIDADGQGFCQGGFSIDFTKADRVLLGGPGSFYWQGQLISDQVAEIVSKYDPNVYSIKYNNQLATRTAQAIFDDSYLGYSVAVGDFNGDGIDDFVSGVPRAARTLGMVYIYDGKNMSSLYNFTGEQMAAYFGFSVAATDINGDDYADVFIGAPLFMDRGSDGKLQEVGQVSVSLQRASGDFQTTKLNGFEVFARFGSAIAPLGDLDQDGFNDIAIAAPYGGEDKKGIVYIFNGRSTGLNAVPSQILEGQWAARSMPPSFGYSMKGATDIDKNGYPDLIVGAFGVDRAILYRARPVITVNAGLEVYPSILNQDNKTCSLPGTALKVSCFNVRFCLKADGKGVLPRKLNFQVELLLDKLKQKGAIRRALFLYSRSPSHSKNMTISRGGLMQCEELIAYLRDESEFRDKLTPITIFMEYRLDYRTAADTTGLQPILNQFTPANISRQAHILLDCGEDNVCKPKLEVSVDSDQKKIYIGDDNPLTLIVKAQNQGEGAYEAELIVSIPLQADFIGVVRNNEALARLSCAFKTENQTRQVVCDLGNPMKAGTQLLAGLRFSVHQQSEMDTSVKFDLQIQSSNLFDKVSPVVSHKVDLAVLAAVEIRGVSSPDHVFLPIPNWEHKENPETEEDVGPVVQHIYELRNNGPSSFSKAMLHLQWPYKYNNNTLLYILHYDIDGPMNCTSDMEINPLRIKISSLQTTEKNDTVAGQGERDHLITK
# Chain of integrin αvβ3 protein (purified ABI) (P06756 891-1048 partner limits assumed): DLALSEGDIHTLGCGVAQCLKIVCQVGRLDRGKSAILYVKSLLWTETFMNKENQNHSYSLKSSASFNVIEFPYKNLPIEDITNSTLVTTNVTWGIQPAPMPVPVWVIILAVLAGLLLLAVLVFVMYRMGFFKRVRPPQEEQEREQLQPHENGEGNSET
# Chain of integrin αvβ3 protein (purified ABI) (P05106 27-788): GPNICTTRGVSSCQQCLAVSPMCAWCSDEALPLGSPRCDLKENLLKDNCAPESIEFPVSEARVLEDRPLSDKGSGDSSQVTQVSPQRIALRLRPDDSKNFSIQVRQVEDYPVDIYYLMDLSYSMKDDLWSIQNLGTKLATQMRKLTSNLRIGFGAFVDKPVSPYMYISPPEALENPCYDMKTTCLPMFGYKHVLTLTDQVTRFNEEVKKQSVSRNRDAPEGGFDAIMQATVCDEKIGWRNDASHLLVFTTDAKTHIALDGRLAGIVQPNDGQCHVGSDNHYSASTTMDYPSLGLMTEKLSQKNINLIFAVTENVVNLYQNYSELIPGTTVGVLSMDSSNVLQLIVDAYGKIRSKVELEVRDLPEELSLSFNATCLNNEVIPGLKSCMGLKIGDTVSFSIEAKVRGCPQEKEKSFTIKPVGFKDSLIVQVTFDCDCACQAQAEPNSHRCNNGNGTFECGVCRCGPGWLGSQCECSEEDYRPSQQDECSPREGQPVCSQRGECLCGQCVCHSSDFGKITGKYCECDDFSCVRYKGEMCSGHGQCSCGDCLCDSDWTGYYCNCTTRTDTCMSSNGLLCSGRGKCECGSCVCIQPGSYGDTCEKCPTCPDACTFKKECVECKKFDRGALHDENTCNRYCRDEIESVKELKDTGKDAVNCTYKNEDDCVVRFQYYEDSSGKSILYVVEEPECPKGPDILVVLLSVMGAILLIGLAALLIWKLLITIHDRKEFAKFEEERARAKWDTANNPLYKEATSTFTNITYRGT
smiles,measurement,setting,value
"CC1(C)C(/C=C/C=C/C=C/C=C2/N(CCC(=O)NCC(=O)N[C@@H](CCCNC(=N)N)C(=O)N[C@@H](CC(=O)O)C(=O)N[C@@H](CO)C(=O)N3CCC[C@H]3C(=O)N[C@@H](CCCCN)C(=O)O)c3ccc4ccccc4c3C2(C)C)=[N+](CCC(=O)O)c2ccc3ccccc3c21 [Cyp-GRD, Cypate-GRDSPK] (HELM PEPTIDE1{[CC1(C)C(/C=C/C=C/C=C/C=C2/N(CCC(=O)[*:2])c3ccc4ccccc4c3C2(C)C)=[N+](CCC(=O)O)c2ccc3ccccc3c21].G.R.D.S.P.K}$$$$V2.0)",^abεmax,[1],"237,680 cm^−1Mol^−1"
same,^abλmax,[1],789 nm
same,^emλmax,[1],813 nm
same,IC50,[2],> 100 µM
same,"cell proliferation or cytotoxicity (percent of viable cells, MTT)",A549 cells [3],did not induce cell proliferation or cytotoxicity; also recorded: not cytotoxic
same,"staining of A549 cells with anti-αv, anti-β3, anti-αvβ3 and anti-αIIBβ3 antibodies after preincubation",[4],reduced staining
same,internalization in VSMC wild-type cells,VSMC wild-type cells,internalized
same,internalization in β3 knockout cells,β3 knockout VSMC cells,not observed
same,"cytotoxicity (CyQuant), longer treatment",A549 cells [5],not
